Reference: patent US20240052047A1 (Pfizer, published 2024)

Molecular target: T1, Human gp130 (human, UniProt P40189 23-619)
T1 construct: Soluble analyte in SPR and antigen in ELISA/screens; also called huGP130
T1 sequence: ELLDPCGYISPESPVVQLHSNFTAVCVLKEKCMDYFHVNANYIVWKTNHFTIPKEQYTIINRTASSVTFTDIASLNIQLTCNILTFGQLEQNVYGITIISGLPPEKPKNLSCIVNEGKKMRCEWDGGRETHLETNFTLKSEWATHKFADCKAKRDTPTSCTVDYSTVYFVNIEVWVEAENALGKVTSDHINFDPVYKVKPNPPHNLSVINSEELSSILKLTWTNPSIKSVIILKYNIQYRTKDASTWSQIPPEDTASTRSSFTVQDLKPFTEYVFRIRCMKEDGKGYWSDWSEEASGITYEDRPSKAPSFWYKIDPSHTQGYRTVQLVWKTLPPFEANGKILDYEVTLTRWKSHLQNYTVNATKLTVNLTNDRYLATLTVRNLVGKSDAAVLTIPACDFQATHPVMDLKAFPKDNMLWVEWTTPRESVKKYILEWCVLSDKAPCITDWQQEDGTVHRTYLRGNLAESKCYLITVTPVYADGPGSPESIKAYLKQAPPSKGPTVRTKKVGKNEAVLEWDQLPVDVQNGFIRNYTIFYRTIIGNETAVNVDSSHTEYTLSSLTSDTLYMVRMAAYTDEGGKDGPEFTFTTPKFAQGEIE
Test: SPR Biacore 8K+, 37 C; mAb-4894 captured by anti-Fab, antigen as analyte; 1:1 Langmuir fit
Procedure: The crossreactivity of mAb-4894 to human and cynomolgus monkey antigens, gp130 (human—SEQ ID NO: 45, cynomolgus—SEQ ID No: 46) and IL27RA (human—SEQ ID NO: 41, cynomolgus—SEQ ID No: 42), was measured by surface plasmon resonance by anti-FAB capture of mAb-4894 (containing arms of anti-IL27RA-4880 EE and anti-gp130-4875 RR) on a biacore chip. Human or cynomolgus monkey IL27RA or gp130 was flowed over the chip and on and off rates were determined, and the affinity constants calculated.
Flow cell 1 for each channel was used as a reference flow cell. After antibody capture, three-fold dilution series of cytokines with concentrations ranging from 405 nM to 15 nM for huGP130 and cyGP130 and 45 nM to 1.67 nM for huIL27R and cyIL27R or HBS-EP+ buffer were injected over the sensor surface for 60 seconds at 50 μl/minute. The dissociation was monitored for 600 seconds and the surface was regenerated with 2 injections of 10 mM Glycine pH 1.7 at 30 μl/minute. The data was double referenced (Myszka, D., J. Mol. Recognit 1999; 279-284). Binding affinities and rate constants were determined for human and cyno GP130 and IL27R by fitting the resulting sensorgram data to a 1:1 Langmuir model in BIAcore Insight Evaluation software version 3.0.12.15655 (Cytiva).

Kd: 170 nM | koff: 0.0566 s⁻¹ | kon: 337000 M⁻¹ s⁻¹
B1: mAb-4894 anti-IL27RA/gp130 bispecific antibody (bispecific antibody, human IgG1)
heavy 1: EVQLVESGGGLVQPGGSLRLSCAASGFTFEYFGLQWVRQAPGKGLEWIGYTSSGGNYEYYEETLKGRFTISRDNAKNSLYLQMNSLRAEDTAVYYCARTKTGDYWGQGTLVTVSSASTKGPSVFPLAPSSKSTSGGTAALGCLVKDYFPEPVTVSWNSGALTSGVHTFPAVLQSSGLYSLSSVVTVPSSSLGTQTYICNVNHKPSNTKVDKKVEPKSCEKTHTCPPCPAPEAAGAPSVFLFPPKPKDTLMISRTPEVTCVVVDVSHEDPEVKFNWYVDGVEVHNAKTKPREEQYNSTYRVVSVLTVLHQDWLNGKEYKCKVSNKALPAPIEKTISKAKGQPREPQVYTLPPSREEMTKNQVSLTCEVKGFYPSDIAVEWESNGQPENNYKTTPPVLDSDGSFFLYSKLTVDKSRWQQGNVFSCSVMHEALHNHYTQKSLSLSPGK
light 1: DIQMTQSPSSLSASVGDRVTITCRASQDIGNSLTWYQQKPGKAPKRVIFGATGLAAGVPSRFSGSGSGTDFTLTISSLQPEDFATYYCLQSKQYPYTFGQGTKLEIKRTVAAPSVFIFPPSDEQLKSGTASVVCLLNNFYPREAKVQWKVDNALQSGNSQESVTEQDSKDSTYSLSSTLTLSKADYEKHKVYACEVTHQGLSSPVTKSFNRGEC
heavy 2: QVQLVQSGAEVKKPGSSVKVSCKVSGGSISSYYWSWVRQAPGQGLEWIGRIYITGNTNYNPSLKDRVTMTVDTSTSTHYMELSSLRSEDTAVYYCAREGPKLGIFDYWGQGTLVTVSSASTKGPSVFPLAPSSKSTSGGTAALGCLVKDYFPEPVTVSWNSGALTSGVHTFPAVLQSSGLYSLSSVVTVPSSSLGTQTYICNVNHKPSNTKVDKKVEPKSCRKTHTCPPCPAPEAAGAPSVFLFPPKPKDTLMISRTPEVTCVVVDVSHEDPEVKFNWYVDGVEVHNAKTKPREEQYNSTYRVVSVLTVLHQDWLNGKEYKCKVSNKALPAPIEKTISKAKGQPREPQVYTLPPSREEMTKNQVSLTCLVKGFYPSDIAVEWESNGQPENNYKTTPPVLDSDGSFFLYSRLTVDKSRWQQGNVFSCSVMHEALHNHYTQKSLSLSPGK
light 2: DIQMTQSPSSLSASVGDRVTITCRASQSVSSSYLAWYQQKPGKAPKLLIYGTESRATGVPSRFSGSGSGTDFTLTISSLQPEDFATYYCQQYGGYPTFGGGTKVEIKRTVAAPSVFIFPPSDEQLKSGTASVVCLLNNFYPREAKVQWKVDNALQSGNSQESVTEQDSKDSTYSLSSTLTLSKADYEKHKVYACEVTHQGLSSPVTKSFNRGEC
notes: Human IgG1 EE/RR heterodimer with L234A, L235A, G237A (EU); also called GBT-IL27R-4894; GBT-IL-27R-4894
